B1: HDV Ribozyme (parent)
chain: GGCCGGCAUGGUCCCAGCCUCCUCGCUGGCGCCGGCUGGGCAACAUUCCGAGGGGACCGUCCCCUCGGUAAUGGCGAAUGGGACCCA

Variants of: B1
Experiment: self-cleavage, relative activity (ratio to wild type); higher = more cleavage; co-transcriptional

Which self-cleavage does the source give for GGACGGCAUGGUCCCAGCCUCCUCGCUGGCGCCGGCUGGGCAACAUUCCGAGGGGACCUUCCCCUCGGUAAUGGCGAAUGGGACCCA [C3A G59U] here?
Its self-cleavage is 0.755.

With GGCCGGCAUGGUCCCAGCCUCCUCGCUGGCGCCGGCUGUGCAACAUUCCGAGGGGACCGACCCCUCGGUAAUGGCGAAUGGGACCCA [G39U U60A] as the variant, how does the self-cleavage read?
The self-cleavage was 0.623.

For GGCCGGCAUGGUCCCAGCCUCCUCGCUGGCGCCGGCUGGGCAACAUUUCGAGGGUACCGUCCCCUCGGUAAUGGCGAAUGGGACCCA [C48U G55U], which self-cleavage is on record?
Its self-cleavage is 1.11.

For GGCCGGCGUGGUCCCAGCCUCCUCGCUGGCGCCGGCUGGGCAACAUUCCGAGGGGACCGUCCCCUCGGUAAUGGCGAAUGGGACCUA [A8G C86U], which self-cleavage is on record?
Its self-cleavage is 1.11.

Which self-cleavage does the source give for UGCCGGCAUGGUCCCAGCCUCCUCGCAGGCGCCGGCUGGGCAACAUUCCGAGGGGACCGUCCCCUCGGUAAUGGCGAAUGGGACCCA [G1U U27A] here?
The self-cleavage was 0.44.

For GGCCGGCAUGGUCCCAGACUCCUCGCUGGCGCCGGCUGGGCAACAUUCCGAGGGGACCCUCCCCUCGGUAAUGGCGAAUGGGACCCA [C18A G59C], which self-cleavage is on record?
The self-cleavage was 0.0639.

For GGCCGGCAUGGUCCCAGCCUCCUCGCUGGCGCCGGGUGGGCAACAUUCCGAGGGAACCGUCCCCUCGGUAAUGGCGAAUGGGACCCA [C36G G55A], which self-cleavage is on record?
Its self-cleavage is 0.117.

For GGCCGGCAUGGUCCCAGCCUCCUCGCUGGAGCCGGCUGGGCAACAUUCCGAGGGGACCGUCCCCUAGGUAAUGGCGAAUGGGACCCA [C30A C66A], which self-cleavage is on record?
Its self-cleavage is 0.582.

Which self-cleavage does the source give for AGCCGGCAUGGUCCCAGCCUCCUCGCUGGCGCCGGCUGGGCAACAUUCCGAGGGGACCGUCCCCUCGGUAAUGGCGAAUGGAACCCA [G1A G82A] here?
Its self-cleavage is 0.

Which self-cleavage does the source give for GGACGGCAUGGUGCCAGCCUCCUCGCUGGCGCCGGCUGGGCAACAUUCCGAGGGGACCGUCCCCUCGGUAAUGGCGAAUGGGACCCA [C3A C13G] here?
The self-cleavage was 0.0396.

With GGCCGGCAUGGCCCCAGCCUCCUCGCUGGCGCCGGCUGGGCAACAUUCCGAGGGGACCGUCCCCUCGGUAAUGGCGAAUAGGACCCA [U12C G80A] as the variant, how does the self-cleavage read?
Its self-cleavage is 0.243.

For GGCCGGCAUGGUCCCAGCCUCCUCGGUGGCGCCGGCUGGGCAACAUUCCGAGGGGAUCGUCCCCUCGGUAAUGGCGAAUGGGACCCA [C26G C57U], which self-cleavage is on record?
The self-cleavage was 1.02.

Which self-cleavage does the source give for GGCCGGCAUGGUCCCAGCCUCCUCGCUGGCGCCGGCUGGGCAACAUUCCGAGGGGACCGUCCCCUCGGUAAUGGCGAAUGUGAACCA [G81U C84A] here?
Its self-cleavage is 0.378.

With GGCCGGCAUGGUCCCAGCCUCCUCGCUGGCGCCGGCUGGGCAACAUUCGGAGGGGACCGUCCCCUCGGUAAUGGCGAAUGGGGCCCA [C49G A83G] as the variant, how does the self-cleavage read?
The self-cleavage was 0.378.

Which self-cleavage does the source give for GGACGGCAUGGUCCCAGCCUCCUCACUGGCGCCGGCUGGGCAACAUUCCGAGGGGACCGUCCCCUCGGUAAUGGCGAAUGGGACCCA [C3A G25A] here?
The self-cleavage was 0.0658.

Which self-cleavage does the source give for GGCCGGCAUAGUCCCAGCCUCCUCGCUGGCGCCGGCUGGGCAACAUUCCGAGGGGACCGUCCCCGCGGUAAUGGCGAAUGGGACCCA [G10A U65G] here?
Its self-cleavage is 0.767.

For GGCCGGCAUGGUCCCUGCCUCCUCGCUGGCGCCGGCUGGGCAACAUUCCGAGGGGACCGUCCCCUUGGUAAUGGCGAAUGGGACCCA [A16U C66U], which self-cleavage is on record?
Its self-cleavage is 1.05.

Which self-cleavage does the source give for GGCCGGCAUGGUCCCACCCUACUCGCUGGCGCCGGCUGGGCAACAUUCCGAGGGGACCGUCCCCUCGGUAAUGGCGAAUGGGACCCA [G17C C21A] here?
Its self-cleavage is 0.0519.

For GGCCGGCAUGGUCCCAGCCUCCUCGCUGGCGCCGGCUGGGCAACGUUCCGAGGGGACCGUCCCCUCAGUAAUGGCGAAUGGGACCCA [A45G G67A], which self-cleavage is on record?
The self-cleavage was 0.678.

With GGCCGGCAUGGUCCCAGCCUCCUCGCUGGCGCCGGCUGGGCAACAUUCCGAGGGGACCGUCCCCACGGUAAUUGCGAAUGGGACCCA [U65A G73U] as the variant, how does the self-cleavage read?
Its self-cleavage is 0.217.

Which self-cleavage does the source give for GGCCGGCAUGGUCCCAGGCUCCUCGCUGGCGCCGGCUGGGCAACAUUCCGAGGGGAGCGUCCCCUCGGUAAUGGCGAAUGGGACCCA [C18G C57G] here?
The self-cleavage was 0.133.

With GGCCGGCAUGGUCCCAGCCUCCUCGCUGGCGCCGGCUGGGCAACAUUCCGAGAGGACCGUCCCCUCGCUAAUGGCGAAUGGGACCCA [G53A G68C] as the variant, how does the self-cleavage read?
The self-cleavage was 0.604.

With GGCAGGCAUGGUCCCAGCCUCCUCGCUGGCGCCGGCUGGGCAACAUUCCGAGGGGACCGUCCCCUCGGUAAUGGUGAAUGGGACCCA [C4A C75U] as the variant, how does the self-cleavage read?
The self-cleavage was 0.102.

With GGCCGGCAUGGUCCCAGCCUCCUCGAUAGCGCCGGCUGGGCAACAUUCCGAGGGGACCGUCCCCUCGGUAAUGGCGAAUGGGACCCA [C26A G28A] as the variant, how does the self-cleavage read?
Its self-cleavage is 0.166.

For GGCCGGCAUGGUCCCAGCCUCCUCGCUGGCGCCGGCUGGGCAACAAUCCGAGGGGACCGUCCCCUCGGUAAUGGCGAAUGGCACCCA [U46A G82C], which self-cleavage is on record?
The self-cleavage was 0.

For GGCCGGCAUGGUCCCAGCCUCCUCGCUGGCGCCGCCUGGGCAACAUUCCGAGGGGACCGUCCCCUGGGUAAUGGCGAAUGGGACCCA [G35C C66G], which self-cleavage is on record?
Its self-cleavage is 0.228.

Which self-cleavage does the source give for GGCCGGCAUGGUCCCAGCCUCCUCGCUGGCGCCGGCUGGGCAACAUUCCUAGGGGACCGUCCCCUCGGUAAUGGCGAAUUGGACCCA [G50U G80U] here?
Its self-cleavage is 0.2.

With GGCCGGCAUGCUCCCAGCCUCUUCGCUGGCGCCGGCUGGGCAACAUUCCGAGGGGACCGUCCCCUCGGUAAUGGCGAAUGGGACCCA [G11C C22U] as the variant, how does the self-cleavage read?
The self-cleavage was 0.0817.

For GGCCGGCAUGGUCCCAGCCUCCUCGCUGGCGCCGGCUGGGCAACGUUCCGAGGGGACCGACCCCUCGGUAAUGGCGAAUGGGACCCA [A45G U60A], which self-cleavage is on record?
The self-cleavage was 0.866.

With GGCCGGCAUGGUCCCAGCCUCCUCGCUGGCGCCGGCUGGGCAACAUUCGGAGGGGACCGCCCCCUCGGUAAUGGCGAAUGGGACCCA [C49G U60C] as the variant, how does the self-cleavage read?
Its self-cleavage is 0.831.

With GGCCGGCAUGGUCCCAGCCUCCUCGUUGGCGCCGGCUGGGCAACAUUCCGAGGGGACCGUCGCCUCGGUAAUGGCGAAUGGGACCCA [C26U C62G] as the variant, how does the self-cleavage read?
The self-cleavage was 0.618.

Which self-cleavage does the source give for GGCCGGCAUGGUCCCAGCCGCCUCGCUGGCGCCGGCUGGGCAACAUUCCGAGGGUACCGUCCCCUCGGUAAUGGCGAAUGGGACCCA [U20G G55U] here?
The self-cleavage was 0.332.

Reference: the RNAGym collection of RNA variant scans (doi:10.7554/elife.80360)
